The values below come from the supplement of paper PMC9112550, “Optimization of the antimicrobial peptide Bac7 by deep mutational scanning” (BMC Biology, 2022).

The test system of the data set is Escherichia coli TOP10. In words: shrunken log2 fold change of peptide-encoding DNA abundance (4.5 h post-induction vs induction); higher = less antimicrobial activity (less host growth inhibition). Conditions: time post-induction: 4.5 h; library: site-saturation at positions 5, 18, 19, 20.
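Further: peptides expressed intracellularly from a pBAD plasmid library in pooled LB shake-flask culture, induced with 0.3% L-arabinose, DNA abundance read by NGS, three biological replicates, DESeq2 with apeglm shrinkage.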

As to RRIRMRPPRLPRPRPRPFVFPRP, the “shrunken log2 fold change” value is 0.0629.

Regarding RRIRGRPPRLPRPRPRPHPDPRP, the “shrunken log2 fold change” value amounted to 0.502.

On to RRIRHRPPRLPRPRPRPRIEPRP, for which the “shrunken log2 fold change” value was 0.15.

Take RRIRNRPPRLPRPRPRPAHIPRP: the “shrunken log2 fold change” value is 0.00258.

As for RRIRGRPPRLPRPRPRPNSEPRP, the “shrunken log2 fold change” value was 0.295.

Consider RRIRIRPPRLPRPRPRPMDFPRP, for which the “shrunken log2 fold change” value came to 0.00128.

As for RRIRVRPPRLPRPRPRPHAAPRP, the “shrunken log2 fold change” value was 0.156.

Regarding RRIRRRPPRLPRPRPRPEDCPRP, the “shrunken log2 fold change” value is -0.0482.

As for RRIRSRPPRLPRPRPRPVPPPRP, the “shrunken log2 fold change” value turned out to be 0.329.

RRIRSRPPRLPRPRPRPKLCPRP: the “shrunken log2 fold change” value came out at 0.0502.

As to RRIRPRPPRLPRPRPRPYPNPRP, the “shrunken log2 fold change” value is -0.159.

As to RRIRKRPPRLPRPRPRPIMAPRP, the “shrunken log2 fold change” value came out at 0.0791.

Turning to RRIRWRPPRLPRPRPRPPSDPRP, the “shrunken log2 fold change” value turned out to be 0.184.

RRIRYRPPRLPRPRPRPNWWPRP: the “shrunken log2 fold change” value is -0.00469.

In the case of RRIRIRPPRLPRPRPRPCYVPRP, the “shrunken log2 fold change” value was -0.411.

With RRIRNRPPRLPRPRPRPVVQPRP, the “shrunken log2 fold change” value was 0.0488.

For the sequence RRIRMRPPRLPRPRPRPCDGPRP, the “shrunken log2 fold change” value stood at 0.0158.

RRIRNRPPRLPRPRPRPDRPPRP: the “shrunken log2 fold change” value is -0.151.

RRIRDRPPRLPRPRPRPEIPPRP: the “shrunken log2 fold change” value was -0.0405.

For the sequence RRIRKRPPRLPRPRPRPDSEPRP, the “shrunken log2 fold change” value was -0.0164.

In the case of RRIRFRPPRLPRPRPRPEWHPRP, the “shrunken log2 fold change” value is -0.28.

With RRIRIRPPRLPRPRPRPHCHPRP, the “shrunken log2 fold change” value is -0.394.

Take RRIRSRPPRLPRPRPRPDKNPRP: the “shrunken log2 fold change” value is -0.105.

On to RRIRIRPPRLPRPRPRPFHDPRP, for which the “shrunken log2 fold change” value is -0.374.

On to RRIRNRPPRLPRPRPRPYWIPRP, for which the “shrunken log2 fold change” value is -1.71.

As to RRIRGRPPRLPRPRPRPSICPRP, the “shrunken log2 fold change” value came to 0.207.

In the case of RRIRQRPPRLPRPRPRPIIAPRP, the “shrunken log2 fold change” value came out at 0.00878.

As for RRIRDRPPRLPRPRPRPMMGPRP, the “shrunken log2 fold change” value turned out to be 0.0397.

On to RRIRLRPPRLPRPRPRPEMWPRP, for which the “shrunken log2 fold change” value is 0.204.

Turning to RRIRFRPPRLPRPRPRPFFSPRP, the “shrunken log2 fold change” value was -0.59.

In the case of RRIRFRPPRLPRPRPRPHFAPRP, the “shrunken log2 fold change” value was 0.0808.

Take RRIRYRPPRLPRPRPRPMSNPRP: the “shrunken log2 fold change” value was -0.709.

As for RRIRDRPPRLPRPRPRPGWEPRP, the “shrunken log2 fold change” value came to 0.00884.

As to RRIRGRPPRLPRPRPRPNQFPRP, the “shrunken log2 fold change” value was 0.0521.

As to RRIRPRPPRLPRPRPRPYFNPRP, the “shrunken log2 fold change” value is -0.619.

Regarding RRIRPRPPRLPRPRPRPQMDPRP, the “shrunken log2 fold change” value is -0.395.

For RRIRTRPPRLPRPRPRPTIYPRP, the “shrunken log2 fold change” value is -0.409.

On to RRIRWRPPRLPRPRPRPDFTPRP, for which the “shrunken log2 fold change” value was 0.15.

Turning to RRIRIRPPRLPRPRPRPPDDPRP, the “shrunken log2 fold change” value came to 0.494.

Turning to RRIRARPPRLPRPRPRPWHPPRP, the “shrunken log2 fold change” value is -0.00894.

For the sequence RRIRCRPPRLPRPRPRPQEQPRP, the “shrunken log2 fold change” value was determined as 0.0612.

Regarding RRIRKRPPRLPRPRPRPWWVPRP, the “shrunken log2 fold change” value turned out to be 0.404.

Turning to RRIRTRPPRLPRPRPRPHLRPRP, the “shrunken log2 fold change” value was -0.264.

With RRIRQRPPRLPRPRPRPYPFPRP, the “shrunken log2 fold change” value was -0.035.

With RRIRMRPPRLPRPRPRPPIAPRP, the “shrunken log2 fold change” value worked out at 0.826.

As to RRIRNRPPRLPRPRPRPGIKPRP, the “shrunken log2 fold change” value was -0.192.

Regarding RRIRHRPPRLPRPRPRPPIPPRP, the “shrunken log2 fold change” value is -0.11.

With RRIRSRPPRLPRPRPRPQWRPRP, the “shrunken log2 fold change” value amounted to 0.11.

For the sequence RRIRARPPRLPRPRPRPAVCPRP, the “shrunken log2 fold change” value came out at 0.442.

RRIRIRPPRLPRPRPRPCWLPRP: the “shrunken log2 fold change” value is -0.196.

For the sequence RRIRYRPPRLPRPRPRPFLAPRP, the “shrunken log2 fold change” value is -0.649.

In the case of RRIRRRPPRLPRPRPRPEEVPRP, the “shrunken log2 fold change” value was 0.0988.

Consider RRIRYRPPRLPRPRPRPLGRPRP, for which the “shrunken log2 fold change” value was -0.191.

Turning to RRIRYRPPRLPRPRPRPFAPPRP, the “shrunken log2 fold change” value is -0.386.

Regarding RRIRFRPPRLPRPRPRPTDKPRP, the “shrunken log2 fold change” value turned out to be 0.00702.

Take RRIRRRPPRLPRPRPRPRDFPRP: the “shrunken log2 fold change” value is 0.298.

As to RRIRARPPRLPRPRPRPKASPRP, the “shrunken log2 fold change” value came out at 0.256.

For RRIRKRPPRLPRPRPRPLACPRP, the “shrunken log2 fold change” value is -0.0149.

As for RRIRYRPPRLPRPRPRPIKEPRP, the “shrunken log2 fold change” value is 0.0062.

In the case of RRIRERPPRLPRPRPRPRGRPRP, the “shrunken log2 fold change” value is 0.358.

As for RRIRQRPPRLPRPRPRPNMAPRP, the “shrunken log2 fold change” value was -0.173.

For RRIRGRPPRLPRPRPRPIQLPRP, the “shrunken log2 fold change” value was 0.043.

For RRIRARPPRLPRPRPRPFEIPRP, the “shrunken log2 fold change” value was determined as 0.083.

For RRIRWRPPRLPRPRPRPMRRPRP, the “shrunken log2 fold change” value was found to be 0.481.

As to RRIRRRPPRLPRPRPRPSAGPRP, the “shrunken log2 fold change” value amounted to 0.392.

Take RRIRDRPPRLPRPRPRPDRIPRP: the “shrunken log2 fold change” value is -0.0411.

Turning to RRIRERPPRLPRPRPRPMWYPRP, the “shrunken log2 fold change” value was -0.379.

As for RRIRMRPPRLPRPRPRPFDAPRP, the “shrunken log2 fold change” value was determined as 0.396.

Turning to RRIRYRPPRLPRPRPRPCYRPRP, the “shrunken log2 fold change” value is -0.172.

RRIRARPPRLPRPRPRPFFIPRP: the “shrunken log2 fold change” value was -0.211.

Regarding RRIRHRPPRLPRPRPRPPMMPRP, the “shrunken log2 fold change” value came out at 0.03.

RRIRWRPPRLPRPRPRPCECPRP: the “shrunken log2 fold change” value is -0.151.

As to RRIRPRPPRLPRPRPRPRYKPRP, the “shrunken log2 fold change” value is -0.269.

As for RRIRPRPPRLPRPRPRPGQTPRP, the “shrunken log2 fold change” value was -0.00112.

In the case of RRIRMRPPRLPRPRPRPQYDPRP, the “shrunken log2 fold change” value was -0.204.

Regarding RRIRSRPPRLPRPRPRPDPQPRP, the “shrunken log2 fold change” value turned out to be 0.282.

Turning to RRIRWRPPRLPRPRPRPSADPRP, the “shrunken log2 fold change” value was 0.115.

On to RRIRMRPPRLPRPRPRPVKPPRP, for which the “shrunken log2 fold change” value came to 0.202.

Consider RRIRTRPPRLPRPRPRPENSPRP, for which the “shrunken log2 fold change” value came to 0.032.

In the case of RRIRVRPPRLPRPRPRPVLCPRP, the “shrunken log2 fold change” value was determined as 0.0228.

RRIRIRPPRLPRPRPRPDDMPRP: the “shrunken log2 fold change” value is -0.0552.

With RRIRYRPPRLPRPRPRPSFPPRP, the “shrunken log2 fold change” value is -0.831.

Take RRIRVRPPRLPRPRPRPHYDPRP: the “shrunken log2 fold change” value is -0.379.

Turning to RRIRYRPPRLPRPRPRPCMAPRP, the “shrunken log2 fold change” value was -0.117.

In the case of RRIRWRPPRLPRPRPRPHYGPRP, the “shrunken log2 fold change” value was -0.0711.

Consider RRIRFRPPRLPRPRPRPNVLPRP, for which the “shrunken log2 fold change” value was -0.323.

Turning to RRIRCRPPRLPRPRPRPERCPRP, the “shrunken log2 fold change” value is 0.302.

Turning to RRIRRRPPRLPRPRPRPFMLPRP, the “shrunken log2 fold change” value worked out at 0.0692.

Turning to RRIRLRPPRLPRPRPRPVVVPRP, the “shrunken log2 fold change” value was found to be 1.45.

In the case of RRIRSRPPRLPRPRPRPDCGPRP, the “shrunken log2 fold change” value is 0.0769.

As for RRIRLRPPRLPRPRPRPMFTPRP, the “shrunken log2 fold change” value was -0.0806.
